B1: Ab No. 60 (antibody, V domains shown)
VH: EVQLLESGGGLVQPGGSLRLSCAASGFTFDNYAMSWVRQAPGKGLEWVSAISADAGQTYYADSVKGRFTISRDNSKNTLYLQMNSLRAEDTAVYYCARDSPHMATYKSYYYYGMDVWGQGTTVTVSS
VL: DIVMTQSPDSLAVSLGERATINCKSSQSLLNARTGKNYLAWYQQKPGQPPKLLIYWASTRESGVPDRFSGSGSGTDFTLTISSLQAEDVAVYYCKQSYSLRTFGGGTKVEIK
notes: IgG format; also called ADI-83102
B2: Ab No. 68 (antibody, V domains shown)
VH: EVQLVESGGGLVQPGGSLRLSCAASGFTFQSYAMNWVRQAPGKGLEWVSYISDDASTIYYADSVKGRFTISRDNAKNSLYLQMNSLRAEDTAVYYCAREVHRGWGAFDIWGQGTMVTVSS
VL: B1 VL
notes: IgG format
B3: Ab No. 83 (antibody, V domains shown)
VH: EVQLLESGGGLVQPGGSLRLSCAASGFTFSDHSMNWYRQAPGKERELVSAISGSGGSTYYADSVKGRFTISRDNSKNTLYLQMNSLRAEDTAVYYCNARRYQSSGGDVWGQGTQVTVSS
notes: HCAb format (dimer of VH-hinge-CH2-CH3, no VL, CL or CH1)
B4: Ab No. 70 (antibody, V domains shown)
VH: EVQLLESGGGLVQPGGSLRLSCAASGFTFSDYAMSWVRQAPGKERELVSIISASGGTTYYAGSVKGRFTISRDNSKNTLYLQMNSLRAEDTAVYYCAAHASGSYYLDASRDYDADYWGQGTQVTVSS
notes: as for B3
B5: Ab No. 78 (antibody, V domains shown)
VH: EVQLLESGGGLVQPGGSLRLSCAASGFTFDTYSMNWFRQAPGKERELVSAISGVGSTYYADSVKGRFTISRDNSKNTLYLQMNSLRAEDTAVYYCHARGFRLGYDFDYYWGQGTQVTVSS
notes: as for B3

What was measured:
human CD28 [1] = molecular target: T1, human CD28 (human, UniProt P10747 19-152, limits assumed); assay: selection from yeast-presented libraries of heavy chains and CD3-binding light chains
T1 construct: also called Cluster of Differentiation 28; Tp44

human CD28 [2] = molecular target: T1, human CD28; assay: selection from yeast-presented heavy chain-only libraries (HCAb format)

Binder | binding result (human CD28 [1]) | binding result (human CD28 [2])
B1 | binds | 
B2 | binds | 
B3 |  | binds
B4 |  | binds
B5 |  | binds
